# According to patent US20090305961:
# System: plasminogen
substance,measurement,value
human low molecular weight urokinase-plasminogen activator (LMW-u-PA),"amidolytic activity, chromogenic substrates Chromozyme U and S-2251, absorbance at 405 nm",Cells transfected with pLMW-u-PA showed much higher levels of u-PA activity compared to cells transfected with pSPUC1A
